Tests used:
[1] = target: murine CTLA-4. his tag protein (murine) (UniProt P09793); assay: ELISA on coated mouse CTLA-4 his tag protein, goat anti-human IgG-Fc HRP; unit from the axis; the isotype curve is flat at OD450 0, so the number comes from a fit of a flat line
[2] = target: cynomolgus monkey CTLA-4. his tag protein (cynomolgus monkey) (UniProt G7PL88); assay: ELISA on coated cynomolgus monkey CTLA-4 his tag protein, goat anti-human IgG-Fc HRP; unit from the axis; the isotype curve is flat at OD450 0, so the number comes from a fit of a flat line
[3] = target: human CTLA-4 his tag antigen (human) (UniProt P16410); assay: ELISA on coated human CTLA-4 his tag protein, goat anti-human IgG-Fc HRP; unit from the axis; the isotype curve is flat at OD450 0, so the number comes from a fit of a flat line

Measured: EC50

UniProt P09793, sequence (P09793 36-161 limits assumed): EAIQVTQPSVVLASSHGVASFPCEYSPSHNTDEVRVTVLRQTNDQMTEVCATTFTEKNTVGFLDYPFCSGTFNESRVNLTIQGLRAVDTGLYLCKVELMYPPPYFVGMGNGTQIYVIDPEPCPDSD
UniProt P16410, sequence (P16410 36-161 limits assumed): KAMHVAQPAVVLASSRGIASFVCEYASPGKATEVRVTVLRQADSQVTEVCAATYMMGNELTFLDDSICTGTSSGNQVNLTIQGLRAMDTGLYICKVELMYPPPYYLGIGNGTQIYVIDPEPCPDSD
UniProt G7PL88, sequence (G7PL88 entry or part of it limits assumed): as the sequence (P16410 36-161 limits assumed) above, with S14N, I18T, L106M counted along it

Isotype (antibody)
5.74 nM: [1] | [2] | [3]

— patent US20250333508A1
